test: soluble on expression in E. coli; label from the status in PepcDB or PDB records

Sequence	soluble on expression in E. coli
MIRHLEFKSRTRTDMIDITSAVQEQVRSAAVRNGVCHLFVLHTTAGITINEGADPAVQRDMVNFLDRLVPIDPYFTHAEGNSDAHIKSTLTGTSLTVFIVEGKLLLGSWQSIYLCEFDGPRHRRVAVKVVPDPLEHHHHHH	not soluble
MRAFYSTTEEISALFAKQQEQLKTMQRTLEDEDNCDNTSLDIDLNPINRSPNRANTQGDKRATSHLNFAARASSSTSGQRSTRNEVVDTSCEDADATQKHDCEIMSQEGQNTQEAEYPSSDKVAKGGFGSDIEGIGTAPTSGTDPVGTEQVNETQSPGNDYERNDHLRKSIILAGDTMQIDCETQVHESVQIEGAVLLLRNPNDRRDTQDIEGVGTIGTSDLLASEVAGSWANSTNPSVHGENETERSREDEESQTQKIKEVTIVQDSAGQIGESQTKPTSPGVLVTNKDDAERGVINEPVGITDQGKIKHGTRSDSETESCSDSDDDHEKEKHNPVSDSDTEGSDMNDDKGSLSSDPDTERSHEVDGDQKKQVDTMDEDDKAT	soluble
MQNHVISLASAAERRAHIAATFGSRGIPFQFFDALMPSERLEQAMAELVPGLSAHPYLSGVEKACFMSHAVLWEQALDEGLPYIAVFEDDVLLGEGAEQFLAEDTWLEERFDKDSAFIVRLETMFMHVLTSPSGVADYGGRAFPLLESEHCGTAGYIISRKAMRFFLDRFAVLPPERLHPVDLMMFGNPDDREGMPVCQLNPALCAQELHYAKFHDQNSALGSLIEHDRRLNRKQQWRDSPANTFKHRLIRALTKIGREREKRRKRREQTIGKIIVPFQLEHHHHHH	soluble
MSQMSPGQARVVDPILSTHARGYRQSTLIGKKLFPVAPVAQYGGKILTFGKEAFRLYNTKRAPGANTKRIDFGYEGDPYSIVPSALEAKVPRELMRDASQVPGIDLGARSVNTVLRIMALAHEHECAQIALDPAKYNADHKVKLVGSARWTSPDSDPTKDVETAKEAIADSIGMEPNRLMLSRKALSACKYHPKLIERVKYTRAESITIDMLKALWEVEEIVVGTARVATGANDSFGDVWGPDVWLGYVSDNPDPSVEEPSFGYTYQIEGHPLVEVPYWDNNAKSWIYGVSDDNTPALSGMLAGYLIEDAGLPAALEHHHHHH	soluble
MADNYVIWFENLRMTDVERVGGKNASLGEMISQLTEKGVRVPGGFATTAEAYRAFLAHNGLSERISAALAKLDVEDVAELARVGKEIRQWILDTPFPEQLDAEIEAAWNKMVADAGGADISVAVRSSATAEDLPDASFAGQQETFLNINGLDNVKEAMHHVFASLYNDRAISYRVHKGFEHDIVALSAGVQRMVRSDSGASGVMFTLDTESGYDQVVFVTSSYGLGENVVQGAVNPDEFYVFKPTLKAGKPAILRKTMGSKHIKMIFTDKAEAGKSVTNVDVPEEDRNRFSITDEEITELAHYALTIEKHYGRPMDIEWGRDGLDGKLYILQARPETVKSQEEGNRNLRRFAINGDKTVLCEGRAIGQKVGQGKVRLIKDASEMDSVEAGDVLVTDMTDPDWEPVMKRASAIVTNRGGRTCHAAIIARELGIPAVVGCGNATELLKNGQEVTVSCAEGDTGFIYAGLLDVQITDVALDNMPKAPVKVMMNVGNPELAFSFANLPSEGIGLARMEFIINRQIGIHPKALLEFDKQDDELKAEITRRIAGYASPVDFYVDKIAEGVATLAASVYPRKTIVRMSDFKSNEYANLVGGNVYEPHEENPMLGFRGAARYVADNFKDCFALECKALKRVRDEMGLTNVEIMIPFVRTLGEAEAVVKALKENGLERGKNGLRLIMMCELPSNAVLAEQFLQYFDGFSIGSNDMTQLTLGLDRDSGLVSESFDERNPAVKVMLHLAISACRKQNKYVGICGQGPSDHPDFAKWLVEEGIESVSLNPDTVIETWLYLANELNK	soluble
PDTSHYALLSNRIVNAVKQYRSQRALEASKDRLSLFIDQSPLGFVEYNQDFEIVRVNETLTEIFGYTETELLGETWETFVSSESYDDVDAVTSALSEASGGYHSVNENVRKDGERIVVEWHNRLVTDDS	not soluble
MSWNCLLPIFVGFFVLFYEGQCQPARWTQQPGGQNPQPGASFPPNMNPVTNGPGSWTQKPGGYNNGPGSGSFKSTKPPRGLVYYQPKNYPYKPGKGGKYMHADPILPNANERLSAQSDQYTVSDGITGDWSKIVANSKGFYVLHPVQTKSEEDIFDPYTIGQVIGYLYEVQEFGGKKPPSGKYTIELMGKKIPDHLKKKRSLFGSPDRTRRATLVFKKKEQVKSTL	not soluble
MGSDKIHHHHHHMSNSSIKSKTALLRNGETQKGNGYPEANDYSARILETMQTGVVFFNTEQIISGINNLACEDLQIPRDPSGHKITDIISIIHQEKDIFPELIARLKSSETDMEKLPIDTLIRSLETKVQFFASGCIMQLETGRYLLAFRNTMDEVTHEHLLSMILARTKIFPWFFDLKRNKMLIDAHWFSYLGIPAGDCEITIEKFFSRVHPNERDMLADALQKQLSEKEIPDSFSYRLQRGDGSWEWFSEQSMYLSKTNDGSPYRIVGVCHSIQEHKNTEDKLRAARNKAQESDRLKSAFLANMSHEIRTPLNAIVGFSNLIAGGIVDLDTEEARDYSALISKNCNYLLTLVSDVLDLSCIESDTMTFKFTVYPLTRLLTEIYQKYENRIPQEVQFNLLLPTDNVEIETDAVRLRQVIEHLLDNAAKFTVKGHIDIGYALSDHGEKIYVFVADTGCGIPSDQYKKVFERFYKINSFVQGAGLGLSVCKTIVEGLGGTINVYSQLKEGSRFSVILPLNRLHK	not soluble
MAARLAASRIVHAGRGISQPTPFGKRMDRLSNRVWGEVVMPTDTKSLKVVRVMSAEPYETKEQLSPKYYPNLPMFHYLTKMLRFHGLFFDDHVVFRDVQDNLKIIRGKVVRPPIGQGKRAQLRGKK	not soluble
MSFALGQRWISDTESDLGLGTVVALDARTVTLMFAASEENRVYARSDAPVTRVIFNVGDVVDSQQGWSLQVEQVVEDQGVYTYLGTRVDTEESGVALREIFLSNQIRFNKPQDKLFAGQIDRMDNFVLRY	not soluble
MDLEEQKKAVIEKLIREGYIKSKRVIDALLKVPREEFLPEHLKEYAYVDTPLEIGYGQTISAIHMVGMMCELLDLKPGMKVLEIGTGCGYHAAVTAEIVGEDGLVVSIERIPELAEKAERTLRKLGYDNVIVIVGDGTLGYEPLAPYDRIYTTAAGPKIPEPLIRQLKDGGKLLMPVGRYLQRLVLAEKRGDEIIIKDCGPVAFVPLVGKEGFQG	soluble
MSLADPADISAASRSVVRVVIIESDGDRANLITHGTGFAVTPNLIVTNAHVVEELRRDDTLIAGVVPAEGRNGFPAKLVAYSPGNDLALLRIEGGGSITPITLFPGAPGDGSEVYAVGYPGNVDLAQGLSMADLVTPQAAVKTRGYLSGGRSSRSFDTLLHTAPLGSGNSGGPLLDSCGRVIGVNSFGTVSDNSTDSAFYFAISMRELSAFLRRANVDAHTSGLPCRSIADLDRAEAERAAGEQARLAAQTAAQADAKQRAMDKARRDAELAILSERDNGEGHHHHHH	soluble
MTVRVGDPELVLDPYDYDFHEDPYPYYRRLRDEAPLYRNEERNFWAVSRHHDVLQGFRDSTALSNAYGVSLDPSSRTSEAYRVMSMLAMDDPAHLRMRTLVSKGFTPRRIRELEPQVLELARIHLDSALQTESFDFVAEFAGKLPMDVISELIGVPDTDRARIRALADAVLHREDGVADVPPPAMAASIELMRYYADLIAEFRRRPANNLTSALLAAELDGDRLSDQEIMAFLFLMVIAGNETTTKLLANAVYWAAHHPGQLARVFADHSRIPMWVEETLRYDTSSQILARTVAHDLTLYDTTIPEGEVLLLLPGSANRDDRVFDDPDDYRIGREIGCKLVSFGSGAHFCLGAHLARMEARVALGALLRRIRNYEVDDDNVVRVHSSNVRGFAHLPISVQAR	not soluble
MDCQIGSRRCATWDEIEDAPQTKRLREDKVQENVPQQSVQPAPPPPAAQQAPAPAEQPKFYISAPIQGFTVNNQGGCRYLFF	not soluble
MSLKAIIDNIKILEQNAINKGLDELILMENAGLNLAKLIKKEAKKIRIQRKIRKVKILFLLGGGNNASDGLVALRNLKHAKAYKIGFKENTLFKKQEQILQNYAFKFCKKEPNFKKFHIIIDCILGTGSNRCLDEKTSLIIQKVNQSKALKIACDIPTNLGFYPCFKADITFCMGALKEILLEDFAKEFVGRIKIANLGIRSKKFYPNSQAFLLEKKDLKTIDRKINANKGNFGHIYIVANASAGTLAGLGALNFGAGLVSLVAQKSFSPLLMLKEKIENNASAIALGMGLENLDFLKDEILQNTPLILDANCFLSEALLWYLNRKDVVITPHPKEFIKLYKMCFDENLDIETLQKNRFFYARKFSQNYDCVLVLKGANPIIVQKEKLFVVNLGNQALAKGGSGDVLSGMIAAHLGFGFSALEAAKNATLAHGLVAKKYKFNKNSFDALKLIKGLKCLEGHHHHHH	soluble
MSLIRVSSAVQRHAQKLIVLFSLLFGASLLMSDNGFATDIKNTNASSPVNSESTKPTKAGEVKNVVRFAKTGSFDNDTVVRLARQLAKKPYVALKDPLPESLANISYDEYRDIRFKPDSAVWKADGLPYQMQLFHRGFFFQDLIEIALVEGNQATHLSYDPNMFTAGEVLQQNLPTEDIGYSGLRVHYPLNSPSYFDELFVFQGASYFRALGKGNAYGLSARGLAIKTADPAGEEFPIFRAFWVEKPNYDTNLIVVHALLDSPSVSGAYRFSIRPGENTRMDVEAVLFPRVELSKVGLAPATSMFMHSPNGREKTDDFRPSVHDSDGLLMINGRGERLWRPLANPSTLQVSAFMDNSPQGFGLMQRERDYANYQDLEAHYEKRPSLWVEPVGNWGPGAVVLTEIPTQSEIHDNIVAFWKPAQPLAAGSEYRFSYHLNWGAQPEANPQAITVSRTASGRADIAKPTPKRLFVIDYQVQGAKPAQMPEPKVRSNAGVISNVVLRDNPANNGYRLSFEFDPGEVTLAELRAELTLQEARPVETWLYRWTLEGGSHHHHHH	soluble
MGSDKIHHHHHHMSLAQFQSVECADCPIRHRAVCARCDADELEALDAIKFYRSYEAGQTVVWSGDQMNFVGSVVSGIATLTQTMEDGRTQMVGLLLPSDFVGRPGREGSAYDVVATTDVIMCCFRKKPFEDLMVRTPHIAHRLLEMTLDELDAAREWMLVLGRKTAREKIASLLSIIARRDASLAVDPSNGAVSFDLKLTREAMADYLGLTLETVSRQISALKKAGVIQLEGKRHVTVPDMHRLIEEAGDDSDGGVLG	not soluble
SASAGGEDCESPAPEADRPHQRPFLIGVSGGTASGKSTVCEKIMELLGQNEVEQRQRKVVILSQDRFYKVLTAEQKAKALKGQYNFDHPDAFDNDLMHRTLKNIVEGKTVEVPTYDFVTHSRLPETTVVYPADVVLFEGILVFYSQEIRDMFHLRLFVDTDSDVRLSRRDKEVCRCDHPTRSGQYGCHQPDRAAHPGHSEW	soluble
MGSDKIHHHHHHMNAPLLLRNVGRGESTESGAVPPAVLPPVQPSPTTLQAPDHAARRRIAVFRALQLGDMLCAVPALRALREGEPDAHITLIGLPWVRDFASRFGSLIDDVMVFPGAPGFPERPYDAAALAAFHAEARARRFDLAIQLHGSGTLSNDVVRQLGARTIAGFCPTSAEAALANEHERLLPWPGGNEIERLLGLMRALGYPVVDAHLAFPLRPQDHAGWQRLAELHGLVGGEYICVHPGARMLSRRWPVERFADVALRLRKRWRIVVTGAPDEIMLTHRLCELIGGDVVNLTAATPLGELAALIAHARLLLCNDTGPSHIAAALDTPSVVVSCGGDSDRWAPLDATLHHVLASYPPCRPCNWQKCPIRHECATAITVDAVEAEALSLASRGHDHA	not soluble

Reference: the DeepSol protein solubility set
